Columns and labels:
[1] = biological target: T1, human CD39 protein (recombinant) (human, UniProt P49961 38-478, limits assumed); assay: cell-based or functional assay
T1 sequence: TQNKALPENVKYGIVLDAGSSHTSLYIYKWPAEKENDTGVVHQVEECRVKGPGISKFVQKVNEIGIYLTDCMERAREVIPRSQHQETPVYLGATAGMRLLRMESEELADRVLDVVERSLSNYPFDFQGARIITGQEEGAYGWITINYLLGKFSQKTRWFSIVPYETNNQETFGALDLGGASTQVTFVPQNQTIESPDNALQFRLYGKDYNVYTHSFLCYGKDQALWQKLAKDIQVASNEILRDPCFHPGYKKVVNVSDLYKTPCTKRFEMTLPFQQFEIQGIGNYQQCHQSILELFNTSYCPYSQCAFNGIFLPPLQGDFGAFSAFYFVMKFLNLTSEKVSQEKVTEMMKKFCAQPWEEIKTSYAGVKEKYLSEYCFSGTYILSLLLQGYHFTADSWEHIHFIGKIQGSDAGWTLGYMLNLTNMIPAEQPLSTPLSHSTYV

[2] = biological target: T1, human CD39 protein (recombinant); assay: ELISA on coated human CD39 protein
Description: To determine if anti-CD39 mAbs bind to human CD39, ELISA plates were incubated overnight at 4° C. with human CD39 protein or mouse CD39 protein diluted in PBS, pH7.4 buffer at 1 μg/ml. Plates were washed four times in washing buffer (PBS containing 0.05% Tween 20), and blocked for 1 hour at 37° C. with 200 μl per well blocking buffer (1% BSA in PBS containing 0.05% Tween 20). After blocking buffer was removed, hybridoma supernatant or diluted purified Abs were added to the wells at 100 μl per well and incubated at 37° C. for 1 hour. The wells were washed four times with washing buffer, and anti-mouse HRP (for mouse anti-human CD39 Ab characterization) or anti-rat HRP (for rat anti-mouse CD39 Ab characterization) (Sigma) were 1:5000 diluted and added to the wells at 100 μl per well. The plates were incubated for 1 hour at 37° C. and washed four times in washing buffer. 100 μl of tetramethylbenzidine (TMB) chromogenic solution were added per well. Following color development, the reaction was stopped with 1N HCl, and absorbance at 450 nm was measured. The data were proceeded by GraphPad software.
Humanized antibodies HuEM04-38-6 to HuEM0004-38-20 and chimeric antibodies EM04-38c, EM004-38c1, and EM0004-38c2 were tested for CD39 specific binding by ELISA as described in Example 1.2 and for inhibition of protein-based ATPase activity as described in Example 1.3.

[3] = biological target: T2, human CD39 on the cell membrane (CHO-K1-human CD39 stable cell line); SK-MEL-28 melanoma cells; human CD4+ T … (human, UniProt P49961 1-510); assay: cell-based or functional assay
T2 sequence: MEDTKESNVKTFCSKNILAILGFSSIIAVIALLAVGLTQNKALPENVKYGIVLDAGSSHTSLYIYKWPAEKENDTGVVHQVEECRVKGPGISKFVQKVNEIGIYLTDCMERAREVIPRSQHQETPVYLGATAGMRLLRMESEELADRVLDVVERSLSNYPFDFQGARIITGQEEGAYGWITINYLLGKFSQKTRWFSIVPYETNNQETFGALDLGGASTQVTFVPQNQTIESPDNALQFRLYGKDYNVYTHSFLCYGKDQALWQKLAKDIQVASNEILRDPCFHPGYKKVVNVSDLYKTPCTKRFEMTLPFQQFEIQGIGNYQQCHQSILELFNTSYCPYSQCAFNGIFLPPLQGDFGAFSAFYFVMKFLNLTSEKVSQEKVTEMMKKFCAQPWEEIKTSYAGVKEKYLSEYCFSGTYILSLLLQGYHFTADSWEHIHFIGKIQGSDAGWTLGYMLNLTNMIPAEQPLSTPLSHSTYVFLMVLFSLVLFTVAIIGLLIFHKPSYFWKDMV

[4] = biological target: T2, human CD39 on the cell membrane …; assay: cell-based or functional assay; remark: listed apart in the source
[5] = biological target: T3, cynomolgus monkey CD39 on CHO-K1 cells (cynomolgus monkey, UniProt A0A7N9DGH8 1-510); assay: FACS on CHO-K1-cyno CD39 cells
T3 construct: whole, on cells; also called CHO-K1-cyCD39; CHO-K1-cyno CD39
T3 sequence: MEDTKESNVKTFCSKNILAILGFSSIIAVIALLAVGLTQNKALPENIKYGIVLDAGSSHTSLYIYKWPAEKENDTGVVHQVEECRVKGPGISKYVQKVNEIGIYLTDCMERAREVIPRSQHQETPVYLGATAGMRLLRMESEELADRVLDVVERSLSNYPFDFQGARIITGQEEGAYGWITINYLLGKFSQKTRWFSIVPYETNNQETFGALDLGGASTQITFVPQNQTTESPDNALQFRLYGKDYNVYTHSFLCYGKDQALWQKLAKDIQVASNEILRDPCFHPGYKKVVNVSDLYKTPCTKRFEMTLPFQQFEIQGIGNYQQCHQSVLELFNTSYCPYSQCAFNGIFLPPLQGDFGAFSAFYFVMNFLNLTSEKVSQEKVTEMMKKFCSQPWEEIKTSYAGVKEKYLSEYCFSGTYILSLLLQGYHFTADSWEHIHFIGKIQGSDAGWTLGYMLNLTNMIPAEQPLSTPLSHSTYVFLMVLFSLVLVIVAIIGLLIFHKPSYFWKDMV
Description: (§1) The ability of the purified antibodies to bind to cell membrane human CD39, cynomolgus monkey CD39, or mouse CD39 was determined by FACS analysis. CHO-K1 cells stably transfected to overexpress human CD39, cynomolgus monkey CD39, or mouse CD39 (CHO-K1-huCD39 cells, CHO-K1-cyCD39 cells, and CHOK1-muCD39 cells) were generated for use in this assay. Briefly, SK-MEL-28 melanoma cells (ATCC) or CD39 overexpressing stable CHO cell lines were resuspended in PBS containing 2% FBS (FACS buffer) and seeded at 1-5×10⁵ cells/well into U-bottomed plates. Anti-CD39 mAbs or isotype control antibodies diluted in FACS buffer were added to the wells and incubated for 1 hour at 4° C. After washing with FACS buffer, 1:1000 diluted Fluorescence-labeled secondary antibody (Life Technologies/ThermoFisher Scientific) were added and incubated for 30 min. at 4° C. Unbound secondary mAb was removed by washing with FACS buffer three times, and the samples were then read on a FACS instrument. The data were processed by GraphPad software.
(§2) Accordingly, a G55A mutation was introduced in the CDR-H2 in HuEM0004-38-17, -18, and -19 to generate HuEM0004-38-21 (SEQ ID NO:32 (VH) and SEQ ID NO:17 (VK)), HuEM0004-38-22 (SEQ ID NO:33 (VH) and SEQ ID NO:17 (VK)), and HuEM0004-38-23 (SEQ ID NO:34 (VH) and SEQ ID NO:17 (VK)). The three humanized anti-CD39 antibodies were characterized by FACS binding assay and for cell-based inhibition of ATPase activity.

[6] = biological target: T2, human CD39 on the cell membrane …; assay: FACS on CHO-K1-human CD39 cells
Description: as §1, §2

[7] = biological target: T2, human CD39 on the cell membrane …; assay: FACS on SK-MEL-28 cells (endogenous human CD39)
Description: as §1, §2

[8] = biological target: T4, huCD39-ECD-His (human, UniProt P49961 38-478); assay: BLI (Octet RED96), antibody captured on AHC biosensor, antigen in solution
T4 construct: also called C-terminally hexahistidine-tagged human CD39 extracellular domain
T4 sequence: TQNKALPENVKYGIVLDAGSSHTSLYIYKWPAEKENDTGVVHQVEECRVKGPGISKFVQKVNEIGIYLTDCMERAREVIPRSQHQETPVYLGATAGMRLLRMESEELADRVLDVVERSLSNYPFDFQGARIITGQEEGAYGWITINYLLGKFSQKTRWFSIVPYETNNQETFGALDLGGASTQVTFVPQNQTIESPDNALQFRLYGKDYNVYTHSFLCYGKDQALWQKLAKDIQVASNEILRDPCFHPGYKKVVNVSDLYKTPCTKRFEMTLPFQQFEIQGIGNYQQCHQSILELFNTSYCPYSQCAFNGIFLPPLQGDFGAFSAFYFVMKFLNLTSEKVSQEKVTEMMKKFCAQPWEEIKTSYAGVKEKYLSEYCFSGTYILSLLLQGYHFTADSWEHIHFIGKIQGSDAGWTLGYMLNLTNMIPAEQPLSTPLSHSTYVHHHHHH
Description: Anti-CD39 antibodies were characterized for affinities and binding kinetics using the Octet®RED96 biolayer interferometry system (Pall FortéBio LLC). Purified anti-CD39 antibodies were captured by Anti-Mouse IgG Fc Capture (AMC) biosensors or Anti-Human IgG Fc Capture (AHC) biosensors at a concentration of 100 nM for 30 seconds. Biosensors were then dipped into running buffer (1X pH7.2 PBS, 0.05% Tween 20, 0.1% BSA) for 60 seconds to check baseline. Binding was measured by dipping sensors into purified recombinant human CD39 protein, 3-fold serial diluted from 200 nM, for 120 seconds. Dissociation was followed by dipping sensors into running buffer for 600 seconds. The association and dissociation curves were fitted to a 1:1 Langmuir binding model using Fortebio Data Analysis software (Pall FortéBio LLC).

| Binder | ATPase inhibition IC50 [1] | ATPase inhibition, inhibition % [1] | EC50 [2] | cell-based CD39 ATPase inhibition assay (SK-MEL-28 cells), concentration of essentially complete inhibition [3] | IC50 (read off the curve), cell-surface hCD39 ATPase activity [4] | EC50 [5] | EC50 [6] | EC50 [7] | Kd [8] | koff [8] | kon [8] |
| --- | --- | --- | --- | --- | --- | --- | --- | --- | --- | --- | --- |
| EM0004-38c1 (antibody, human IgG1, kappa, L234A L235A, name in Kabat numbering, V domains shown, chimeric mAb638 variant; also called EM004-38c1) VH: QVQLQQPGTELVKPGASVKLSCKASGYTFTSFWMHWVKQRPGQGLEWIGNINPRQGATKYNEKFRSKVTLTADKTSSTAYMHLSSLTSEDSAVYYCAREDYDEIYYAMDSWGQGTSVTVSS VL: QNVLTQSPAIMSASPGEKVTMTCSASSSVIYMYWFQQKPGSSPRVLIYDTSNLASGVPARFSGSGSGTSYSLTISRMEAEDAATYYCQQWSTYPLTFGAGTKLELKR | 15.6 nM | 102% | 0.023 µg/mL | – | – | – | – | – | – | – | – |
| EM0004-38c2 (antibody, human IgG1, kappa, L234A L235A, name in Kabat numbering, V domains shown, chimeric mAb638 variant) VH: QVQLQQPGTELVKPGASVKLSCKASGYTFTSFWMHWVKQRPGQGLEWIGNINPRNAATKYNEKFRSKVTLTADKTSSTAYMHLSSLTSEDSAVYYCAREDYDEIYYAMDSWGQGTSVTVSS VL: QNVLTQSPAIMSASPGEKVTMTCSASSSVIYMYWFQQKPGSSPRVLIYDTSNLASGVPARFSGSGSGTSYSLTISRMEAEDAATYYCQQWSTYPLTFGAGTKLELKR | 14.3 nM | 103% | 0.016 µg/mL | – | – | – | – | – | – | – | – |
| HuEM0004-38-22 (antibody, human IgG1, kappa, L234A L235A, V domains shown, humanized mAb638 with G55A) VH: EVQLVQSGAEVKKPGASVKVSCKASGYTFTSFWMHWVRQAPGQGLEWMGNINPRNAATKYNEKFRSRVTLTADKSISTAYMELSRLRSDDTAVYYCAREDYDEIYYAMDSWGQGTTVTVSS VL: ENVLTQSPATLSLSPGERATLSCSASSSVIYMYWFQQKPGQSPRVLIYDTSNLASGVPARFSGSGSGTDYTLTISSLEPEDFAVYYCQQWSTYPLTFGQGTKLEIKR | – | – | – | ~1 nM | ~0.2 nM | 7.42 nM | 7.21 nM | 4.71 nM | 2.53 nM | 0.000348 s⁻¹ | 138000 M⁻¹ s⁻¹ |
| HuEM0004-38-21 (antibody, human IgG1, kappa, L234A L235A, V domains shown, humanized mAb638 with G55A) VH: EVQLVQSGAEVKKPGASVKVSCKASGYTFTSFWMHWVRQAPGQGLEWMGNINPRNAATKYNEKFRSRVTMTADKSISTAYMELSRLRSDDTAVYYCAREDYDEIYYAMDSWGQGTTVTVSS VL: ENVLTQSPATLSLSPGERATLSCSASSSVIYMYWFQQKPGQSPRVLIYDTSNLASGVPARFSGSGSGTDYTLTISSLEPEDFAVYYCQQWSTYPLTFGQGTKLEIKR | – | – | – | ~1 nM | ~0.2 nM | 6.14 nM | 6.34 nM | 4.75 nM | 2.28 nM | 0.000316 s⁻¹ | 139000 M⁻¹ s⁻¹ |
| HuEM0004-38-23 (antibody, human IgG1, kappa, L234A L235A, V domains shown, humanized mAb638 with G55A) VH: EVQLVQSGAEVKKPGASVKVSCKASGYTFTSFWMHWVRQAPGQGLEWIGNINPRNAATKYNEKFRSRVTLTADKSISTAYMELSRLRSDDTAVYYCAREDYDEIYYAMDSWGQGTTVTVSS VL: ENVLTQSPATLSLSPGERATLSCSASSSVIYMYWFQQKPGQSPRVLIYDTSNLASGVPARFSGSGSGTDYTLTISSLEPEDFAVYYCQQWSTYPLTFGQGTKLEIKR | – | – | – | ~1 nM | ~0.2 nM | 7.18 nM | 8.36 nM | 5.47 nM | 2.55 nM | 0.000365 s⁻¹ | 143000 M⁻¹ s⁻¹ |

Source: patent US20220389111A1 (SHANGHAI EPIMAB BIOTHERAPEUTICS, published 2022)
